# In patent US10000775B2, “Biosynthesis of 1-undecene and related terminal olefins” (The Regents of the University of California, priority 2013, dated 2018):
# B1: PFL_4321: protein of 261 amino acids from Pseudomonas fluorescens Pf-5; non-heme iron (II)-dependent enzyme converting medium-chain fatty acids into terminal olefins (protein, listed as Pseudomonas fluorescens)
# chain: MIDTFSRTGPLMEAASYPAWTQQLIQDCSESKRRVVEHELYQRMRDNKLSAKVMRQYLIGGWPVVEQFALYMAQNLTKTRFARHPGEDMARRWLMRNIRVELNHADYWVHWSRAHGVTLEDLQAQQVPPELHALSHWCWHTSSADSLIVAIAATNYAIEGATGEWSALVCSNGIYAAAFPEEDRKRAMKWLKMHAQYDDAHPWEALEIIVTLAGLNPTKALQAELRQAICKSYDYMYLFLERCMQQEKTAVTRERLALAEG
# Assay: In vitro activity of PFL_4321 and PFL_0203 toward fatty acids with various chain lengths
# Type: biochemical
# Set-up: key to In vitro activity toward C8:0 / In vitro activity toward C10:0 / In vitro activity toward C12:0 / In vitro activity toward C14:0 / In vitro activity toward C16:0: ✓: indicates production of the corresponding 1-alkene from the indicated substrate; x: indicates failure to produce the corresponding 1-alkene from the indicated substrate
# Procedure: A typical condition is as follows: 1 mL of reaction mixture contains 50 mM MES buffer (pH 6.2), 300 mM NaCl, 100 μM (NH4)2Fe(SO4)2, 1 mM ascorbic acid, 100 μM fatty acid substrate or analogs, and 10 μM enzyme. The reaction was performed in a sealed headspace vial at 30° C., initiated by adding lauric acid and quenched by injecting equal volume of 5 M NaOH. 1-Undecene production was analyzed and quantified by using the SPME-GCMS method. To determine the kinetic parameters of PFL_4321 on lauric acid, initial velocities at 1, 10, 20, 50, 100, and 150 μM of lauric acid were measured (25 mM lauric acid solution was prepared by adding 0.5% tergitol and heating at 65° C. for 10 min). The reactions were quenched at 2, 4, 6, 8, and 10 seconds, and the acquired turnover rates were fit to the Michaelis-Menten equation using GraphPad Prism to obtain kcat and Km. The kcat and Km of myristic acid and capric acid were determined similarly.
# Unless otherwise noted, all experiments with PFL_0203 as described herein were performed using similar assays, procedures, and techniques as used in a given corresponding experiment as described in Example 1.
# The fatty acid substrate specificity of PFL_0203 was investigated in a series of in vitro experiments. […] Thus, PFL_4321 and PFL_0203 share some overlap in suitable substrates; PFL_4321 is able to act on C10-C14 fatty acid substrates, and PFL_0203 is able to act on C10-C16 fatty acid substrates.
molecule,measurement,setting,value
B1,In vitro activity toward C8:0,substrate C8:0,x
same,In vitro activity toward C10:0,substrate C10:0,✓
same,In vitro activity toward C12:0,substrate C12:0,✓
same,In vitro activity toward C14:0,substrate C14:0,✓
same,In vitro activity toward C16:0,substrate C16:0,x
